Target: T1, Prostaglandin D2 receptor 2 (CRTH2R) (UniProt Q9Y5Y4 1-395)
T1 chain: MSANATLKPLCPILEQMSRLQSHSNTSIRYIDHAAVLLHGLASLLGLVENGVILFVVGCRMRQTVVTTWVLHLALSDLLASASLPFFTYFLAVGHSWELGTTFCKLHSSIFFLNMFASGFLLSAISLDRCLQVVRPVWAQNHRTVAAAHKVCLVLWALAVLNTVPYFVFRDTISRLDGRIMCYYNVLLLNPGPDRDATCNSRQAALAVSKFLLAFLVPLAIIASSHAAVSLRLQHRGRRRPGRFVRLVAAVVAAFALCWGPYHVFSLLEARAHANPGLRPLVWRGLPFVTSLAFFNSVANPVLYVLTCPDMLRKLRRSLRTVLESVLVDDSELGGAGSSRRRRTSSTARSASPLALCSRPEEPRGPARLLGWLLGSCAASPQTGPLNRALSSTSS
Test: FACS binding; CRTH2R-positive cells

- EC50: 0.181 nM
B1: CRTH2-41-51 (Fc fusion)
chain: EVQLVESGGGLVQPGGSLRLSCAASGGIFRFNAMGWFRQAPGKERELVAGISGSGGDTYYADSVKGRFTISADNSKNTAYLQMNSLKPEDTAVYYCAAFRGIMRPDWGQGTLVTVSS
